Measurements as given in patent US12091776B2, “Protease activity profiling via programmable phage display of comprehensive proteome-scale peptide libraries” (THE JOHNS HOPKINS UNIVERSITY, priority 2019, dated 2024).
Where “and” joins values, the source holds several entries; their conditions need not be identical. Equal entries are not always repeated.

What was measured:
Caspase-1 [1] = target: T1, Caspase-1 (Homo sapiens, UniProt P29466); test: SEPARATE assay: human peptidome library digest with Caspase-1; type: biochemical; conditions: for Caspase1 fold change: top 20 enriched peptides, human library (90-aa tiles), normalized read counts digest vs mock digest
T1 construct: purchased BioVision
T1 sequence (P29466 120-297 limits assumed): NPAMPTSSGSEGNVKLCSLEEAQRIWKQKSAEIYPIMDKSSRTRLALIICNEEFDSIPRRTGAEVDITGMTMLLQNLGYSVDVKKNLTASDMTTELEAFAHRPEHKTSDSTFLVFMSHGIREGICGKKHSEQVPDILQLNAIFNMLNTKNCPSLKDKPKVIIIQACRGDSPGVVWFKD
T1 sequence (P29466 317-404 limits assumed): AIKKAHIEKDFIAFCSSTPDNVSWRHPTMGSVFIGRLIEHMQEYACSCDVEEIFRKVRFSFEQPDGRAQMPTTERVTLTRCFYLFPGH
Protocol: (§1) Streptavidin-coupled magnetic beads (Dynabeads M-280 Streptavidin, ThermoFisher Scientific) were washed (TBS, pH 7.4, 0.01% NP40) and resuspended in binding buffer (TBS, pH 7.4, 0.001% NP40) containing 2E9 plaque forming units per 10 μl of bead slurry. End-over-end mixing at room temperature was performed for one hour. Phage-coated beads were washed three times with wash buffer and transferred into two protein LoBind Eppendorf tubes blocked with TBS, pH 7.4 containing 1% BSA.
Digestion occurred overnight at room temperature with end-over-end rotation. […] To remove any residual biotinylated phage that may have been nonspecifically released, the 150 μl supernatant of the quenched digest reaction is then incubated with a fresh 10 μl of slurry volume M280 streptavidin beads (pre-washed three times with wash buffer) in a LoBind Eppendorf tube blocked with TBS, pH 7.4 containing 1% BSA at room temperature for one hour with end-over-end rotation.
10 μl slurry volume of protein G magnetic dynabeads were washed in buffer (TBS, pH 7.4, 0.01% NP40) and then resuspended in 50 μl TBS, pH 7.4, 0.01% NP40 containing 4 μg of M2 FLAG antibody for thirty minutes at room temperature with end-over-end rotation. The 150 μl quenched digest reaction is added to the 10 μl FLAG-coated Protein G beads and incubated for 60 minutes at room temperature with end-over-end rotation to capture phage particles released at the protease digest step. Beads are rinsed once with 100 μl wash buffer and stored at −80° C. until PCR amplification.
Library PCR preparation, high-throughput DNA sequencing, and peptide read count data generation was performed as described previously.^44 Briefly, library peptide inserts are amplified by resuspending 10 μl of FLAG-coated Protein G beads in PCR1 master mix containing the T7-Pep2_PCR1_F forward primer ([…]) (SEQ ID NO:3) and a T7-SEPARATE vector specific reverse primer ([…]) (SEQ ID NO:4), which includes an adapter sequence for sample-specific barcoding and Illumina P7 adapter incorporation during a subsequent PCR2 reaction. The PCR2 amplicons are pooled and sequenced using an Illumina NextSeq instrument in standard output mode to obtain single-end 50 nucleotide reads. Dual indexed sample demultiplexing and clonal read count determination were performed using exact sequence matching. […] To calculate the normalization factor, 100 peptides were randomly selected from the mock digest conditions with a read count ranging between 10 and 40. The median read count value for these 100 peptides is calculated for each sample. The random peptide selection and median calculation is performed 20 times and the average of the 20 median values is calculated for each sample. Finally, the normalization factor is calculated by dividing the average median value for each sample by that for one of the mock digest conditions. Read counts are then converted to normalized read counts by dividing each sample's read count values by the normalization factor. Fold enrichments are calculated for each peptide by dividing their normalized read counts in the digest condition by the normalized read counts in the mock digest condition. The fold enrichments can be visualized in an MA plot by transforming the normalized read count data into a log ratio (M, on the y-axis) and a mean average (A, on the x-axis) between the digest and mock digest conditions.

Caspase-1 [2] = target: T1, Caspase-1; test: SEPARATE assay: 56-amino acid mouse peptidome library digested with Caspase-1; type: biochemical; conditions: mouse library peptides of IL-1β and Gsdmd, FIG. 8
Protocol: as §1
Digestion occurred overnight at room temperature with end-over-end rotation. […]
Library PCR preparation, high-throughput DNA sequencing, and peptide read count data generation was performed as described previously.^44 Briefly, library peptide inserts are amplified by resuspending 10 μl of FLAG-coated Protein G beads in PCR1 master mix containing the T7-Pep2_PCR1_F forward primer ([…]) (SEQ ID NO:3) and a T7-SEPARATE vector specific reverse primer ([…]) (SEQ ID NO:4), which includes an adapter sequence for sample-specific barcoding and Illumina P7 adapter incorporation during a subsequent PCR2 reaction. The PCR2 amplicons are pooled and sequenced using an Illumina NextSeq instrument in standard output mode to obtain single-end 50 nucleotide reads. Dual indexed sample demultiplexing and clonal read count determination were performed using exact sequence matching. […]

Thrombin = target: T2, Thrombin (Homo sapiens, UniProt P00734); test: SEPARATE assay: human peptidome library digest with Thrombin; type: biochemical; conditions: top 20 enriched peptides, human library (90-aa tiles); digest vs mock digest
T2 construct: Thrombin (a serine protease); purchased SignalChem
Protocol: The PCR2 amplicons are pooled and sequenced using an Illumina NextSeq instrument in standard output mode to obtain single-end 50 nucleotide reads. Dual indexed sample demultiplexing and clonal read count determination were performed using exact sequence matching. […] To calculate the normalization factor, 100 peptides were randomly selected from the mock digest conditions with a read count ranging between 10 and 40. The median read count value for these 100 peptides is calculated for each sample. The random peptide selection and median calculation is performed 20 times and the average of the 20 median values is calculated for each sample. Finally, the normalization factor is calculated by dividing the average median value for each sample by that for one of the mock digest conditions. […]

endogenous Caspase-1 = target: T3, endogenous Caspase-1 (Homo sapiens, UniProt P29466); test: In vitro stimulation of the inflammasome in THP-1 cells (Western blot); type: cell-based; conditions: PMA differentiated THP-1 cells, LPS and Nigericin
T3 construct: endogenous in cells; host or cells: PMA-differentiated THP-1 cells
T3 sequence (P29466 120-404): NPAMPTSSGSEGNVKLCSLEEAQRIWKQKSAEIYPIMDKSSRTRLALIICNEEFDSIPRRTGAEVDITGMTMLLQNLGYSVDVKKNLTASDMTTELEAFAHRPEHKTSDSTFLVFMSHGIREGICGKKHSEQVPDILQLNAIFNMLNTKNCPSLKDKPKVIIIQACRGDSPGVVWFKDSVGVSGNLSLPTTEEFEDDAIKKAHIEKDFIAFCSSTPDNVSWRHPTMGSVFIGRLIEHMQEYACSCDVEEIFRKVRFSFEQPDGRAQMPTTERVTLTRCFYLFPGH
Protocol: THP-1 cells were cultured in RPMI-1640 media with Glutamax (Gibco, ThermoFisher, Cat #61870127), supplemented with 10% FBS (Hyclone SH30071, GE Life Sciences), and 1× Antibiotic-Antimycotic (Gibco, ThermoFisher, Cat #15240062), referred to as complete RPMI. To differentiate THP-1 cells into macrophages, 1×10^6 THP-1 cells were added per well of a 6-well plate in complete RPMI medium containing 50 ng/ml Phorbol 12-myristate 13-acetate (PMA, diluted in RPMI medium from a 1 mg/ml PMA stock in DMSO, Millipore Sigma, Cat. No. P1585). After 48 hours when the cells become adherent, the medium with PMA was removed, cells washed in 1×PBS once, and fresh complete RPMI was added. Cells were allowed to rest for an additional 24 hours before inflammasome activation with LPS and Nigericin.
A 6-well plate of PMA differentiated THP-1 cells were treated with 0, 1 or 0.1 μg/ml LPS (Millipore Sigma, Cat. No. LPS25) for 3.5 hours. After 3.5 hours, cells were treated with 2.5 μM Nigericin for an additional 30 minutes to activate the inflammasome. Cells were washed in 1×PBS and lysed in 1× mammalian cell extraction buffer (BioVision, Cat. No. K269) containing 2 μM Dithiothreitol (DTT). Nuclei were spun down by centrifugation (10,000 rpm, 5 minutes, 4° C.) and the cleared supernatant was used to perform Western blots. […]

B1: UHRF1BP1L 991-1080: 90-aa human peptidome tile displayed on T7 phage (protein, UniProt A0JNW5 991-1080, looked up, fragment)
chain: EIGSETSDKKDSFYTDSSSILNYREDSNILSFDSDGNQNILSSTLTSKGNETIESIFKAEDLLPEAASLSENLDISKEETPPVRTLKSQS
modifications: displayed on T7 phage
B1 showed a Caspase1 fold change (Caspase-1 [1]) of 16.39 fold.

B2: IL-1β: mouse IL-1β (SEQ ID NO:73); library peptides containing Caspase-1 cleavage sites D26 and D117 (protein, UniProt P10749 118-269, looked up)
Interleukin-1 beta: VPIRQLHYRLRDEQQKSLVLSDPYELKALHLNGQNINQQVIFSMSFVQGEPSNDKIPVALGLKGKNLYLSCVMKDGTPTLQLESVDPKQYPKKKMEKRFVFNKIEVKSKVEFESAEFPNWYISTSQAEHKPVFLGNNSGQDIIDFTMESVSS
With B2 the Fold enrichments (Caspase-1 [2]) was 7.5 fold and 13 fold and 9 fold.

B3: APLPRSNRSRCPGTRQPGAASLHAASAAVPVRPRRGTAPAGKTADAVPAAAPEQAPRPAPQSRKPRNLEGDLDERRLLCHLQLAQDREAR (protein, listed as Homo sapiens)
chain: APLPRSNRSRCPGTRQPGAASLHAASAAVPVRPRRGTAPAGKTADAVPAAAPEQAPRPAPQSRKPRNLEGDLDERRLLCHLQLAQDREAR
In the case of B3, the “Thrombi Fold Change” value (Thrombin) is reported as 10.98 fold.

B4: HUWE1 2296-2485: 90-aa human peptidome tile of HUWE1 displayed on T7 phage; position as printed (protein, UniProt Q7Z6Z7 2296-2485, looked up, fragment)
chain: PGEAEVQEEDHDVTQTEVADGDIMDGEAETDSVVIAGQPEVLSSQEMQVENELEDLIDELLERDGGSGNSTIIVSRSGEDESQEDVLMDEAPSNLSQASTLQANREDSMNILDPEDEEEHTQEEDSSGSNEDEDDSQDEEEEEEEDEEDDQEDDEGEEGDEDDDDDGSEMELDEDYPDMNASPLVRFERF
modifications: T7 phage display
notes: position as printed
In the case of B4, the Caspase1 fold change (Caspase-1 [1]) is reported as 22.71 fold.

B5: LYST 1171-1260: 90-aa human peptidome tile displayed on T7 phage (protein, UniProt Q99698 1171-1260, looked up, fragment)
chain: NYSADFEHNDAMTEKSHQSAEELSSQPGDFSEEAEDSQCCSFKLLVEEEGYEADSESNPEDGETQDDGVDLKSETEGFSASSSPNDLLEN
modifications: displayed on T7 phage
B5 was tested, and the Caspase1 fold change (Caspase-1 [1]) was 21.04 fold.

B6: ANAPC1 1-90: 90-aa human peptidome tile displayed on T7 phage (protein, UniProt Q9H1A4 1-90, looked up, fragment)
chain: MSNFYEERTTMIAARDLQEFVPFGRDHCKHHPNALNLQLRQLQPASELWSSDGAAGLVGSLQEVTIHEKQKESWQLRKGVSEIGEDVDYD
modifications: displayed on T7 phage
Molecule B6 has a Caspase1 fold change (Caspase-1 [1]) of 16.35 fold.

B7: Gasdermin-D: well characterized human Caspase-1 substrate (protein, UniProt P57764 1-484, looked up)
Gasdermin-D: MGSAFERVVRRVVQELDHGGEFIPVTSLQSSTGFQPYCLVVRKPSSSWFWKPRYKCVNLSIKDILEPDAAEPDVQRGRSFHFYDAMDGQIQGSVELAAPGQAKIAGGAAVSDSSSTSMNVYSLSVDPNTWQTLLHERHLRQPEHKVLQQLRSRGDNVYVVTEVLQTQKEVEVTRTHKREGSGRFSLPGATCLQGEGQGHLSQKKTVTIPSGSTLAFRVAQLVIDSDLDVLLFPDKKQRTFQPPATGHKRSTSEGAWPQLPSGLSMMRCLHNFLTDGVPAEGAFTEDFQGLRAEVETISKELELLDRELCQLLLEGLEGVLRDQLALRALEEALEQGQSLGPVEPLDGPAGAVLECLVLSSGMLVPELAIPVVYLLGALTMLSETQHKLLAEALESQTLLGPLELVGSLLEQSAPWQERSTMSLPPGLLGNSWGEGAPAWVLLDECGLELGEDTPHVCWEPQAQGRMCALYASLALLSGLSQEPH
With B7 the “scoring in the SEPARATE assay” value (Caspase-1 [1]; human library, Caspase-1) was “did not score” and the “cleavage by endogenous Caspase-1 upon inflammasome activation (Western blot)” value (endogenous Caspase-1) was “cleaved”.

B8: Efs 181-270: 90-aa human peptidome tile displayed on T7 phage (protein, UniProt O43281 181-270, looked up, fragment)
chain: PGEDDAPYDVPLTPKPPAELEPDLEWEGGREPGPPIYAAPSNLKRASALLNLYEAPEELLADGEGGGTDEGIYDVPLLGPEAPPSPEPPG
modifications: displayed on T7 phage
For B8, the Caspase1 fold change (Caspase-1 [1]) was 21.06 fold.
